{
  "source": "paper doi:10.1101/276808",
  "about": "(bioRxiv, 2018)",
  "proteins": {"B1": {"name": "Lrp (natural protein, Escherichia coli, UniProt P0ACJ0 1-164, looked up)", "chain": "MVDSKKRPGKDLDRIDRNILNELQKDGRISNVELSKRVGLSPTPCLERVRRLERQGFIQGYTALLNPHYLDASLLVFVEITLNRGAPDVFEQFNTAVQKLEEIQECHLVSGDFDYLLKTRVPDMSAYRKLLGETLLRLPGVNDTRTYVVMEEVKQSNRLVIKTR"}},
  "target": "the molecule itself",
  "experiment": "native gel or EMSA",
  "note": "Values joined by “and” are separate entries in the source; they are usually repeats but may differ in a detail not shown here. Equal values may be shown once.",
  "data": [
    {"protein": "B1", "values": [
      {"measurement": "stoichiometry N", "value": "8 and 16"}
    ]}
  ]
}
